The values below come from patent US20130183315A1 (GLENMARK PHARMACEUTICALS S A, published 2013).

The labels stand for the following.
T1: recombinant human OX40-his protein (human, UniProt P43489 29-214)
T1 construct: Secretion driven by the native signal peptide of human TNFRSF4; also called recombinant histidine tagged human OX40 receptor extracellular domain; recombinant monovalent human OX40 receptor extracellular domain
T1 sequence: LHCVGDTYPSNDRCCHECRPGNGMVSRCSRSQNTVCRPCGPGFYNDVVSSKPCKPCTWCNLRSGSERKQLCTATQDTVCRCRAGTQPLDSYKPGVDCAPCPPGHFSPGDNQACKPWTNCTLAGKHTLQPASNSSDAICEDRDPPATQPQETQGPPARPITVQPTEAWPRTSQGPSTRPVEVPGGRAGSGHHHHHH

B1: VH4/VL4 (antibody, human IgG1, kappa, V domains shown)
VH: QVTLKESGPALVKPTQTLTLTCSFSGFSLSTSGMGVSWIRQPPGKALEWIAHIWWDDDKYYSTSLKTRLTISKDTSKNQVVLTMTNMDPVDTATYYCARIDWDGFAYWGQGTLVTVSS
VL: EIVLTQSPATLSLSPGERATLSCRASSSVSYYMAWYQQKPGQAPRLLIYATSNRATGIPARFSGSGSGTDYTLTISSLEPEDFAVYYCQQWSSNPWTFGQGTKVEIKR
notes: Humanized, IGHG1, kappa
B2: VH5/VL6 (antibody, human IgG1, kappa)
heavy: not shown
light: QIVLTQSPATLSLSPGERATLSCRASSSVSYYMAWYQQKPGQAPRPWIYATSNRATGIPARFSGSGSGTDYTLTISSLEPEDFAVYYCQQWSSNPWTFGQGTKVEIKRTVAAPSVFIFPPSDEQLKSGTASVVCLLNNFYPREAKVQWKVDNALQSGNSQESVTEQDSKDSTYSLSSTLTLSKADYEKHKVYACEVTHQGLSSPVTKSFNRGEC
notes: Humanized, IGHG1, kappa
B3: VH7/VL11 (antibody, human IgG1, kappa, V domains shown)
VH: QVTLKESGPALVKPTQTLTLTCSFSGFSLSTSGMGVGWIRQPPGKALEWLAHIWWDDDKYYNTALKTRLTISKDTSKNQVVLTMTNMDPVDTATYYCARIDWDGFAYWGQGTLVTVSS
VL: EIVLTQSPATLSLSPGERATLSCRASSSVSYMHWYQQKPGQAPRLLIYATSNLASGIPARFSGSGSGTDYTLTISSLEPEDFAVYYCQQWSSNPWTFGQGTKVEIKR
notes: Humanized, IGHG1, kappa
B4: VH5/VL4 (antibody, human IgG1, kappa, V domains shown)
VH: QVTLKESGPALVKPTQTLTLTCSFSGFSLSTSGMGVSWIRQPPGKALEWIAHIWWDDDKYYNTALKTRLTISKDTSKNQVVLTMTNMDPVDTATYYCARIDWDGFAYWGQGTLVTVSS
VL: EIVLTQSPATLSLSPGERATLSCRASSSVSYYMAWYQQKPGQAPRLLIYATSNRATGIPARFSGSGSGTDYTLTISSLEPEDFAVYYCQQWSSNPWTFGQGTKVEIKR
notes: Humanized, IGHG1, kappa
B5: VH7/VL8 (antibody, human IgG1, kappa, V domains shown)
VH: QVTLKESGPALVKPTQTLTLTCSFSGFSLSTSGMGVGWIRQPPGKALEWLAHIWWDDDKYYNTALKTRLTISKDTSKNQVVLTMTNMDPVDTATYYCARIDWDGFAYWGQGTLVTVSS
VL: EIVLTQSPATLSLSPGERATLSCRASSSVSYMHWYQQKPGQAPRLLIYATSNRATGIPARFSGSGSGTDYTLTISSLEPEDFAVYYCQQWSSNPWTFGQGTKVEIKR
notes: Humanized, IGHG1, kappa
B6: VH5/VL5 (antibody, human IgG1, kappa)
heavy: not shown
light: EIVLTQSPATLSLSPGERATLSCRASSSVSYYMAWYQQKPGQAPRPWIYATSNRATGIPARFSGSGSGTDYTLTISSLEPEDFAVYYCQQWSSNPWTFGQGTKVEIKRTVAAPSVFIFPPSDEQLKSGTASVVCLLNNFYPREAKVQWKVDNALQSGNSQESVTEQDSKDSTYSLSSTLTLSKADYEKHKVYACEVTHQGLSSPVTKSFNRGEC
notes: Humanized, IGHG1, kappa
B7: VH7/VL7 (antibody, human IgG1, kappa, V domains shown)
VH: QVTLKESGPALVKPTQTLTLTCSFSGFSLSTSGMGVGWIRQPPGKALEWLAHIWWDDDKYYNTALKTRLTISKDTSKNQVVLTMTNMDPVDTATYYCARIDWDGFAYWGQGTLVTVSS
VL: EIVLTQSPATLSLSPGERATLSCRASSSVSYMAWYQQKPGQAPRLLIYATSNRATGIPARFSGSGSGTDYTLTISSLEPEDFAVYYCQQWSSNPWTFGQGTKVEIKR
notes: Humanized, IGHG1, kappa
B8: VH3/VL3 (antibody, human IgG1, kappa, V domains shown)
VH: QVTLKESGPALVKPTQTLTLTCTFSGFSLSTSGMGVSWIRQPPGKALEWIAHIWWDDDKYYSTSLKTRLTISKDTSKNQVVLTMTNMDPVDTATYYCARIDWDGFAYWGQGTLVTVSS
VL: EIVLTQSPATLSLSPGERATLSCRASSSVSYYLAWYQQKPGQAPRLLIYATSNRATGIPARFSGSGSGTDYTLTISSLEPEDFAVYYCQQWSSNPWTFGQGTKVEIKR
notes: Humanized, IGHG1, kappa
B9: VH2/VL1 (antibody, human IgG1, kappa, V domains shown)
VH: QVTLKESGPALVKPTQTLTLTCSFSGFSLSTSGMGVSWIRQPPGKALEWIARIWWDDDKYYSTSLKTRLTISKDTSKNQVVLTMTNMDPVDTATYYCARIDWDGFAYWGQGTLVTVSS
VL: EIVLTQSPATLSLSPGERATLSCRASSSVSYYLAWYQQKPGQAPRLLIYATSNRATGIPARFSGSGSGTDFTLTISSLEPEDFAVYYCQQWSSNPWTFGQGTKVEIKR
notes: Humanized, IGHG1, kappa
B10: VH2/VL2 (antibody, human IgG1, kappa, V domains shown)
VH: QVTLKESGPALVKPTQTLTLTCSFSGFSLSTSGMGVSWIRQPPGKALEWIARIWWDDDKYYSTSLKTRLTISKDTSKNQVVLTMTNMDPVDTATYYCARIDWDGFAYWGQGTLVTVSS
VL: EIVLTQSPATLSLSPGERATLSCRASSSVSYYMAWYQQKPGQAPRLLIYATSNRATGIPARFSGSGSGTDFTLTISSLEPEDFAVYYCQQWSSNPWTFGQGTKVEIKR
notes: Humanized, IGHG1, kappa
B11: VH1/VL2 (antibody, human IgG1, kappa, V domains shown)
VH: QVTLKESGPALVKPTQTLTLTCTFSGFSLSTSGMGVSWIRQPPGKALEWIARIWWDDDKYYSTSLKTRLTISKDTSKNQVVLTMTNMDPVDTATYYCARIDWDGFAYWGQGTLVTVSS
VL: EIVLTQSPATLSLSPGERATLSCRASSSVSYYMAWYQQKPGQAPRLLIYATSNRATGIPARFSGSGSGTDFTLTISSLEPEDFAVYYCQQWSSNPWTFGQGTKVEIKR
notes: Humanized, IGHG1, kappa
B12: VH1/VL1 antibody (antibody, human IgG1, kappa, V domains shown)
VH: QVTLKESGPALVKPTQTLTLTCTFSGFSLSTSGMGVSWIRQPPGKALEWIARIWWDDDKYYSTSLKTRLTISKDTSKNQVVLTMTNMDPVDTATYYCARIDWDGFAYWGQGTLVTVSS
VL: EIVLTQSPATLSLSPGERATLSCRASSSVSYYLAWYQQKPGQAPRLLIYATSNRATGIPARFSGSGSGTDFTLTISSLEPEDFAVYYCQQWSSNPWTFGQGTKVEIKR
notes: Humanized, IGHG1, kappa; also called first humanized antibody
B13: VH1/VL3 (antibody, human IgG1, kappa, V domains shown)
VH: QVTLKESGPALVKPTQTLTLTCTFSGFSLSTSGMGVSWIRQPPGKALEWIARIWWDDDKYYSTSLKTRLTISKDTSKNQVVLTMTNMDPVDTATYYCARIDWDGFAYWGQGTLVTVSS
VL: EIVLTQSPATLSLSPGERATLSCRASSSVSYYLAWYQQKPGQAPRLLIYATSNRATGIPARFSGSGSGTDYTLTISSLEPEDFAVYYCQQWSSNPWTFGQGTKVEIKR
notes: Humanized, IGHG1, kappa
B14: VH3/VL1 (antibody, human IgG1, kappa, V domains shown)
VH: QVTLKESGPALVKPTQTLTLTCTFSGFSLSTSGMGVSWIRQPPGKALEWIAHIWWDDDKYYSTSLKTRLTISKDTSKNQVVLTMTNMDPVDTATYYCARIDWDGFAYWGQGTLVTVSS
VL: EIVLTQSPATLSLSPGERATLSCRASSSVSYYLAWYQQKPGQAPRLLIYATSNRATGIPARFSGSGSGTDFTLTISSLEPEDFAVYYCQQWSSNPWTFGQGTKVEIKR
notes: Humanized, IGHG1, kappa
B15: VH2/VL3 (antibody, human IgG1, kappa, V domains shown)
VH: QVTLKESGPALVKPTQTLTLTCSFSGFSLSTSGMGVSWIRQPPGKALEWIARIWWDDDKYYSTSLKTRLTISKDTSKNQVVLTMTNMDPVDTATYYCARIDWDGFAYWGQGTLVTVSS
VL: EIVLTQSPATLSLSPGERATLSCRASSSVSYYLAWYQQKPGQAPRLLIYATSNRATGIPARFSGSGSGTDYTLTISSLEPEDFAVYYCQQWSSNPWTFGQGTKVEIKR
notes: Humanized, IGHG1, kappa
B16: VH3/VL2 (antibody, human IgG1, kappa, V domains shown)
VH: QVTLKESGPALVKPTQTLTLTCTFSGFSLSTSGMGVSWIRQPPGKALEWIAHIWWDDDKYYSTSLKTRLTISKDTSKNQVVLTMTNMDPVDTATYYCARIDWDGFAYWGQGTLVTVSS
VL: EIVLTQSPATLSLSPGERATLSCRASSSVSYYMAWYQQKPGQAPRLLIYATSNRATGIPARFSGSGSGTDFTLTISSLEPEDFAVYYCQQWSSNPWTFGQGTKVEIKR
notes: Humanized, IGHG1, kappa
B17: VH7/VL9 (antibody, human IgG1, kappa, V domains shown)
VH: QVTLKESGPALVKPTQTLTLTCSFSGFSLSTSGMGVGWIRQPPGKALEWLAHIWWDDDKYYNTALKTRLTISKDTSKNQVVLTMTNMDPVDTATYYCARIDWDGFAYWGQGTLVTVSS
VL: EIVLTQSPATLSLSPGERATLSCRASSSVSYMHWYQQKPGQAPRPWIYATSNRATGIPARFSGSGSGTDYTLTISSLEPEDFAVYYCQQWSSNPWTFGQGTKVEIKR
notes: Humanized, IGHG1, kappa; also called humanized variant VH7/VL9

The target of the first assay is T1, recombinant human OX40-his protein. Nature of the assay: SPR (BIAcore): antibody captured on protein A chip, human OX40-his as analyte; analyte concentration not given. As to the method: (§1) Kinetic binding affinity constants (KD) were measured on protein-A captured antibody using recombinant histidine tagged human OX40 receptor extracellular domain as described in Example 1 as analyte. Measurements were conducted on a BIAcore 2000 (GE Healthcare—BIAcore, Uppsala, Sweden) at room temperature, and analyzed with the BiaEvaluation software (BIAcore; v4.1).
(§2) A CMS research grade sensor chip (GE Healthcare Europe GmbH, Glattbrugg, Switzerland; BR-1000-14) was activated by injecting 35 μl of a 1:1 N-hydroxysulfosuccinimide (NHS)/1-Ethyl-3-[3-dimethylaminopropyl]carbodiimide Hydrochloride (EDC) solution (v/v; 5 μl/min flow-rate; on flow paths 1 and 2). Protein-A (ref. P7837; Sigma-Aldrich Chemie GmbH, Buchs, Switzerland) was diluted to a final concentration of 50 μg/ml in acetate buffer pH 4.5 (GE, BR-1003-50; one pH unit below pI) and subsequently immobilized on the previously activated CMS sensor chip by injecting 35 μl on both flow path 1 and 2 (5 μl/min); this corresponded to approximately 1500 response units (RUs). The protein-A-CMS sensor chip was then deactivated by injecting 35 μl of ethanolamine solution (5 μl/min). Finally, two injections of 10 μl of glycine solution (GE, ref BR-1003-54; 10 mM; pH 1.5) were performed to release non-crosslinked protein-A molecules.
(§3) 10 μl of this diluted stock were subsequently injected on the flow-path 2 of the protein-A CMS chip (30 μl/min) to reach 200-250 RUs. Following this capture step, the recombinant histidine tagged human OX40 receptor extracellular domain was injected at different concentrations (50 nM to 0.4 μM) on the flow-path 1 and 2 (flow-path 1 being used as reference) at a 30 μl/min flow rate. After each binding event, surface was regenerated with glycine buffer pH 1.5 injected for 1 min (10 μl/min)
(In general: Surface plasmon resonance follows binding to a sensor surface in real time, without labels.)
B1: the binding result is given as “binds”.
On the same count and under the same terms, under B2 stands “binds”; under B3, “binds”; under B4, “binds”.
As for B5, the binding result is given as “binds”.
Regarding B6, the binding result is “binds”.
Same read-out and setting: as for B7, the entry is “binds”.

For a further assay the target is unchanged. Nature of the assay: SPR (BIAcore): antibody captured on protein A chip, human OX40-his as analyte. The method, then:
as §1, §2, §3
B8: the binding result is given as “no binding (tested: not printed)”.
Regarding B9, the binding result was “no binding (tested: not printed)”.
Regarding B10, the binding result was “no binding (tested: not printed)”.
Consider B11, for which the binding result is “no binding (tested: not printed)”.
The same measure, in the same setting: as for B12, the entry is “no binding (tested: not printed)”.
As for B13, the binding result is reported as “no binding (tested: not printed)”.
For the molecule B14, the binding result is listed as “no binding (tested: not printed)”.
On the same count and under the same terms, as for B15, the entry is “no binding (tested: not printed)”; as for B16, “no binding (tested: not printed)”.

For the next assay the target is unchanged. Description: SPR, antibody captured on protein A, OX40-his as analyte. As to the method:
as §1, §2, §3
On to B17, for which the Kd – broadly, the concentration at which binding is half-saturated – amounted to 70 nM; the koff (commonly a measure of how fast the partners let go of each other) was 0.00312 s⁻¹; the kon (in general, the rate constant with which the complex forms) was 44500 M⁻¹ s⁻¹.
